Experimental data published in article PMC11340043.

Biological target: human LIFR-his (human) (UniProt P42702)
Sequence (P42702 45-833): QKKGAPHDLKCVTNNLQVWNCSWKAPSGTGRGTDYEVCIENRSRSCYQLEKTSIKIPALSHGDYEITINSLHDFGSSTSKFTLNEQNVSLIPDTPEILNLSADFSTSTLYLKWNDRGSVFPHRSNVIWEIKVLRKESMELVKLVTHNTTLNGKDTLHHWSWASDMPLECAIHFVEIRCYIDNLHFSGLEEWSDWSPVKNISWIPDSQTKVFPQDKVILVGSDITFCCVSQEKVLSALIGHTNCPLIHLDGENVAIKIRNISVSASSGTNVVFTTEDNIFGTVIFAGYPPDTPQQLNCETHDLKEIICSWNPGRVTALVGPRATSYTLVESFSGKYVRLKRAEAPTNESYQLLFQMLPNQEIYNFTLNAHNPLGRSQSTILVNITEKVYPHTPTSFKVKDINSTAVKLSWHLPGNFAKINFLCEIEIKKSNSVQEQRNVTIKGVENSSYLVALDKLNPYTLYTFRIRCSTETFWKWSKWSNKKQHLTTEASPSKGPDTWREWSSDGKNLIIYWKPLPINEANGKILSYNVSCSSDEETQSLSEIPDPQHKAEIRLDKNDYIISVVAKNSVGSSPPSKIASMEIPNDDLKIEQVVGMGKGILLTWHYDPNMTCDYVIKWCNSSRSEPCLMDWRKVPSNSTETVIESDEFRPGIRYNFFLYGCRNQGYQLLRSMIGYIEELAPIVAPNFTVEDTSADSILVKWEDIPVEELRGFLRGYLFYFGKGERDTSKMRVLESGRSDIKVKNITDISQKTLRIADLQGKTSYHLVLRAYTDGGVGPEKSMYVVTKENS

human LIF, sequence (P15018 23-202): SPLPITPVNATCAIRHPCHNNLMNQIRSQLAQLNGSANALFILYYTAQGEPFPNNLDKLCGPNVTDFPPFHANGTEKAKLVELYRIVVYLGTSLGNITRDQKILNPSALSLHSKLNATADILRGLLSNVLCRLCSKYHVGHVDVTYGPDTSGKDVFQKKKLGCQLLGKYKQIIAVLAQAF

human LIF (from UniProt P15018 23-202) (ligand)
LIF-induced p-STAT3 (Tyr705) in U266 and HCT116 cells, western blot; dose-dependent inhibition by antibody 1G11, inhibition rate at 2 µg/ml 1G11: > 90%
